Source: publication PMC4157346

Experiments:
[1] = biological target: CXCR1 receptor on stably transfected RBL-2H3 cells (UniProt P25024); test: radioligand binding
[2] = biological target: CXCR2 receptor on stably transfected RBL-2H3 cells (human) (UniProt P25025); test: radioligand binding
[3] = biological target: CXCR1 receptor on stably transfected RBL-2H3 cells (UniProt P25024)

Substance | Kd [1] [nM] | Kd [2] [nM] | EC50 of Ca2+ release, CXCR1-transfected RBL-2H3 cells [3] [nM]
CXCL8 wild type (from UniProt P10145 21-99) (ligand) | 4.1 | 5.4 | 2.5
CXCL8 G31V mutant (ligand) | – | – | 22.9
CXCL8 P32G mutant (ligand) | – | – | > 1000
CXCL8 P32A mutant (ligand) | – | – | 10.7
